Assay results: patent US20230272029A1, “CO-AGONISTS AT GLP-1 AND GIP RECEPTORS SUITABLE FOR ORAL DELIVERY” (Novo Nordisk A/S, priority 2020, published 2023)
Starred links: 1 amine or outer side, 2 acyl side, 3 side chain; linkers in the order of their positions; H or OH if unused. Non-standard residues stand in square brackets, D forms with d. Groups on a side chain read outwards from the residue. No end group written: not given here. *: point of attachment. C18 diacid = O=C(O)CCCCCCCCCCCCCCCCC(=O)*; γGlu = O=C(O)[C@H](CCC(=O)[*:2])N[*:1]; εLys = N[C@@H](CCCCN[*:1])C(=O)[*:2]; Aib = CC(C)(N)C(=O)O

T1: human GIP receptor (human, UniProt P48546 22-466)
T1 sequence (looked up): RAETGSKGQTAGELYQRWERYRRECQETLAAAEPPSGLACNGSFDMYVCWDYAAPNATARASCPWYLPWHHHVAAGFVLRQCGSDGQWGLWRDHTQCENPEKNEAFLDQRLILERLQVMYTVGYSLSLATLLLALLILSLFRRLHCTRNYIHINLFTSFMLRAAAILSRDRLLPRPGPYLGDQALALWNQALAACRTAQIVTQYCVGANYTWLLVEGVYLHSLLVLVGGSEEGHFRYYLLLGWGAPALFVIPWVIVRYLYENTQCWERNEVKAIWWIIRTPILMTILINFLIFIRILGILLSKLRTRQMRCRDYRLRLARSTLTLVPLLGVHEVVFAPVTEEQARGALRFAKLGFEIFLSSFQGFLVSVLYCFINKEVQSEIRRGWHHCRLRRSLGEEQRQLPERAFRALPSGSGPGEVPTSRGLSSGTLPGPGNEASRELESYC

B1: Compound No. 15 (peptide)
peptide: Y[Aib]EGTFTSDYSILLEK([εLys-εLys-γGlu-C18 diacid])QAAREFINWLLAGGPSSGAPPPS-OH
modifications: N-terminus assumed
SMILES: CC[C@H](C)[C@H](NC(=O)[C@H](Cc1ccccc1)NC(=O)[C@H](CCC(=O)O)NC(=O)[C@H](CCCNC(=N)N)NC(=O)[C@H](C)NC(=O)[C@H](C)NC(=O)[C@H](CCC(N)=O)NC(=O)[C@H](CCCCNC(=O)[C@@H](N)CCCCNC(=O)[C@@H](N)CCCCNC(=O)CC[C@H](NC(=O)CCCCCCCCCCCCCCCCC(=O)O)C(=O)O)NC(=O)[C@H](CCC(=O)O)NC(=O)[C@H](CC(C)C)NC(=O)[C@H](CC(C)C)NC(=O)[C@@H](NC(=O)[C@H](CO)NC(=O)[C@H](Cc1ccc(O)cc1)NC(=O)[C@H](CC(=O)O)NC(=O)[C@H](CO)NC(=O)[C@@H](NC(=O)[C@H](Cc1ccccc1)NC(=O)[C@@H](NC(=O)CNC(=O)[C@H](CCC(=O)O)NC(=O)C(C)(C)NC(=O)[C@@H](N)Cc1ccc(O)cc1)[C@@H](C)O)[C@@H](C)O)[C@@H](C)CC)C(=O)N[C@@H](CC(N)=O)C(=O)N[C@@H](Cc1c[nH]c2ccccc12)C(=O)N[C@@H](CC(C)C)C(=O)N[C@@H](CC(C)C)C(=O)N[C@@H](C)C(=O)NCC(=O)NCC(=O)N1CCC[C@H]1C(=O)N[C@@H](CO)C(=O)N[C@@H](CO)C(=O)NCC(=O)N[C@@H](C)C(=O)N1CCC[C@H]1C(=O)N1CCC[C@H]1C(=O)N1CCC[C@H]1C(=O)N[C@@H](CO)C(=O)O
B2: Compound No. 14 (peptide)
peptide: Y[Aib]EGTFTSDYSIALEK([εLys-εLys-γGlu-C18 diacid])QAAREFINWLLAGGPSSGAPPPS-OH
modifications: N-terminus assumed
SMILES: CC[C@H](C)[C@H](NC(=O)[C@H](CO)NC(=O)[C@H](Cc1ccc(O)cc1)NC(=O)[C@H](CC(=O)O)NC(=O)[C@H](CO)NC(=O)[C@@H](NC(=O)[C@H](Cc1ccccc1)NC(=O)[C@@H](NC(=O)CNC(=O)[C@H](CCC(=O)O)NC(=O)C(C)(C)NC(=O)[C@@H](N)Cc1ccc(O)cc1)[C@@H](C)O)[C@@H](C)O)C(=O)N[C@@H](C)C(=O)N[C@@H](CC(C)C)C(=O)N[C@@H](CCC(=O)O)C(=O)N[C@@H](CCCCNC(=O)[C@@H](N)CCCCNC(=O)[C@@H](N)CCCCNC(=O)CC[C@H](NC(=O)CCCCCCCCCCCCCCCCC(=O)O)C(=O)O)C(=O)N[C@@H](CCC(N)=O)C(=O)N[C@@H](C)C(=O)N[C@@H](C)C(=O)N[C@@H](CCCNC(=N)N)C(=O)N[C@@H](CCC(=O)O)C(=O)N[C@@H](Cc1ccccc1)C(=O)N[C@H](C(=O)N[C@@H](CC(N)=O)C(=O)N[C@@H](Cc1c[nH]c2ccccc12)C(=O)N[C@@H](CC(C)C)C(=O)N[C@@H](CC(C)C)C(=O)N[C@@H](C)C(=O)NCC(=O)NCC(=O)N1CCC[C@H]1C(=O)N[C@@H](CO)C(=O)N[C@@H](CO)C(=O)NCC(=O)N[C@@H](C)C(=O)N1CCC[C@H]1C(=O)N1CCC[C@H]1C(=O)N1CCC[C@H]1C(=O)N[C@@H](CO)C(=O)O)[C@@H](C)CC

Assays:
human GLP-1 receptor = human GLP-1 receptor (human, UniProt P43220 24-463); experiment: cell-based or functional assay
human GIP receptor = biological target: T1, human GIP receptor; experiment: cell-based or functional assay

Row | Binder | hGLP-1R, CRE Luc 0% HSA EC50 (pM) (human GLP-1 receptor) | hGLP-1R, CRE Luc 1% HSA EC50 (pM) (human GLP-1 receptor) | hGIPR, CRE Luc 0% HSA EC50 (pM) (human GIP receptor) | hGIPR, CRE Luc 1% HSA EC50 (pM) (human GIP receptor)
1 | B1 | 5 pM | 130 pM | 7.1 pM | 138 pM
2 | B2 | 5.4 pM | 306 pM | 11.6 pM | 580 pM
